Positions count from the first letter of the chain named. Names and notes keep the numbering of the source.
B1: peptide corresponding to aa 200–213 of BAG3 (peptide, UniProt O95817 200-213, looked up)
peptide: QLPRGYISIPVIHE
notes: BAG3, human, amino acids 200–213; source: peptide, 'generated'
B2: purified αB-crystallin wild type (from E. coli) (natural protein, human, UniProt P02511 1-175, looked up)
chain: MDIAIHHPWIRRPFFPFHSPSRLFDQFFGEHLLESDLFPTSTSLSPFYLRPPSFLRAPSWFDTGLSEMRLEKDRFSVNLDVKHFSPEELKVKVLGDVIEVHGKHEERQDEHGFISREFHRKYRIPADVDPLTITSSLSSDGVLTVNGPRKQVSGPERTIPITREEKPAVTAAPKK
notes: αB-crystallin, human, wild type; probably made as a GST fusion from pGEX-6P-1 with the GST removed (it is pulled down by GST-BAG3 on GSH beads); also called WT; source: E. coli, purified
B3: GST-αB-crystallin wild type (natural protein, human, UniProt P02511 1-175, looked up)
chain: B2 chain
notes: αB-crystallin, human, wild type, cDNA subcloned into pGEX-6P-1; also called GST-fused αB-crystallin wild type (WT); GST fusion αB-crystallin; source: E. coli BL21, purified (glutathione-Sepharose beads)
B4: GST-αB-crystallin R120G (natural protein, human, UniProt P02511 1-175, looked up)
chain: B2 chain with R120G
notes: αB-crystallin, human, mutant R120G found in myofibrillar myopathy patients, cDNA subcloned into pGEX-6P-1; also called GST R120GαB-crystallin; GST-fused αB-crystallin mutant (R120G); source: E. coli BL21, purified (glutathione-Sepharose beads)
B5: purified αB-crystallin R120G (from E. coli) (natural protein, human, UniProt P02511 1-175, looked up)
chain: B2 chain with R120G
notes: αB-crystallin, human, mutant R120G found in myofibrillar myopathy patients; probably made as a GST fusion from pGEX-6P-1 with the GST removed; also called R120G αB-crystallin; mutant (R120G); source: E. coli, purified
B6: peptide corresponding to aa 87–101 of BAG3 (peptide, UniProt O95817 87-101, looked up)
peptide: PQLRPGYIPIPVLHE
notes: BAG3, human, amino acids 87–101; source: peptide, 'generated'

Experiments:
Settings in all cases: both partners purified
[1] = biological target: B2; test: pull-down; competition: purified GST-BAG3 incubated with purified αB-crystallin in the presence or absence of peptides aa 87–101 or 200–213 of BAG3; precipitated with GSH beads; immunoblot with anti-αB-crystallin antibody
GST-BAG3 [2] = biological target: T1, GST-BAG3 (human, UniProt O95817 1-575); test: as above
T1 construct: BAG3, human, cDNA subcloned into pGEX-6P-1; also called GST-fused BAG3; GST protein fused to BAG3; source: E. coli BL21, purified (glutathione-Sepharose beads)

[3] = biological target: T2, purified BAG3 (from E. coli) (human, UniProt O95817 1-575); test: pull-down; purified GST-fused αB-crystallin (WT or R120G) mixed with purified BAG3, pulled down with glutathione sepharose beads; immunoblot with anti-BAG3 antibody
T2 construct: BAG3, human; probably made as GST-BAG3 from pGEX-6P-1 with the GST removed (it is pulled down by GST-αB-crystallin on glutathione beads); source: E. coli BL21, purified

GST-BAG3 [4] = biological target: T1, GST-BAG3; test: pull-down; purified GST-BAG3 incubated with purified αB-crystallin in immunoprecipitation buffer, precipitated with glutathione-Sepharose beads; immunoblot with anti-αB-crystallin antibody

T2 sequence (O95817 whole entry, the tested form may be a part): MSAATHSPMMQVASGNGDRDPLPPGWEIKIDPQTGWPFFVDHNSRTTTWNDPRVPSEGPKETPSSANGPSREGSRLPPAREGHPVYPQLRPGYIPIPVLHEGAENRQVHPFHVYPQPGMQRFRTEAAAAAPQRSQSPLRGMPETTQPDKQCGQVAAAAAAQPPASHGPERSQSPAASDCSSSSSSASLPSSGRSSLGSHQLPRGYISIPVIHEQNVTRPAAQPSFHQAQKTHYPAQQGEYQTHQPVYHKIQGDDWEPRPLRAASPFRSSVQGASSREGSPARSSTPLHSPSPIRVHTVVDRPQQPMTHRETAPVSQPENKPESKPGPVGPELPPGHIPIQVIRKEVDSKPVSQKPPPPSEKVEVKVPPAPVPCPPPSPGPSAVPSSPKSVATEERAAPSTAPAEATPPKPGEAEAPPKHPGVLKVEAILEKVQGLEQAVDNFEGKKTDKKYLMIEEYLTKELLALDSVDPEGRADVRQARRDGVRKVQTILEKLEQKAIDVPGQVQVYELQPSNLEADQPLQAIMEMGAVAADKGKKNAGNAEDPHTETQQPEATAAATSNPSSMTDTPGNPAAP
T1 sequence (O95817 whole entry, the tested form may be a part): as above

binding result [1] | binding result [3] | Binder | also measured
binds |  | B1 | 
 |  | B2 | binding result (GST-BAG3 [2]): binds
 | binds | B3 | 
 | binds | B4 | 
 |  | B5 | binding result (GST-BAG3 [4]): binds
binds |  | B6 | 
